Assay results published in patent publication US9999664B2, “HIV-1 gp120 mini V3 loop and uses thereof” (The Scripps Research Institute, priority 2011, dated 2018).

Tests used:
PGT 127 = test: Neoglycolipid microarray binding, PGT 127; conditions: PGT 127 at 10 μg/ml pre-complexed with biotinylated anti-human-IgG; 5 fmol/spot
Experimental: (§1) The microarrays (designated N-glycan-related Array Set 1) consisted of NGLs prepared by reductive amination (70) or oxime ligation (71) (Table S5). These were robotically printed onto nitrocellulose-coated glass slides as described (72), each at two levels (2 and 5 fmol/spot) in duplicate. The binding assays (70) were performed at ambient temperature. The PGTs 127 and 128 were pre-complexed with biotinylated anti-human-IgG (Vector) at a 1:3 ratio, w/w, before applying onto the slides at a final concentration of 10 μg/ml. Biotinylated ConA (Vector) was tested at 0.5 μg/ml. Binding was detected with Alexa-Fluor 647 labelled streptavidin (Molecular Probes) at 1 μg/ml. Microarray data analysis was performed with dedicated software. Binding signals were oligosaccharide dose-related. Results at 5 fmol/spot with selected oligomannose NGLs (prepared by reductive amination) are in FIG. 9A, and the full data with the 50 NGLs are shown in Table S6. Included for comparison are the results with human 2G12 (Polymun Scientific) taken from an earlier experiment performed using a different version of microarrays (73). Antibody 2G12 was analyzed at 1:10000 dilution (without pre-complexation), and the binding was detected with biotinylated anti-human-IgG followed by Alexa-Fluor 647 labelled streptavidin.

PGT 128 = test: Neoglycolipid microarray binding, PGT 128; conditions: PGT 128 at 10 μg/ml pre-complexed with biotinylated anti-human-IgG; 5 fmol/spot
Experimental: as §1

2G12 = 2G12 at 1:10000 dilution; earlier experiment, different version of the microarray; cited from earlier work
plant lectin ConA = biological target: T1, plant lectin ConA (Canavalia ensiformis, UniProt P02866); test: Neoglycolipid microarray binding, ConA; conditions: biotinylated ConA at 0.5 μg/ml
T1 construct: purchased Vector
Experimental: as §1

[1] = biological target: HIV-1 JR-FL envelope (Env) on pseudovirus (HIV-1 JR-FL); test: cell-based or functional assay
[2] = biological target: HIV-1 BaL envelope (Env) on pseudovirus (HIV-1 BaL); test: cell-based or functional assay
[3] = biological target: HIV-1 JR-CSF envelope (Env) on pseudovirus (HIV-1 JR-CSF) (UniProt P20871); test: cell-based or functional assay
[4] = biological target: gp120 JR-CSF (HIV-1 JR-CSF) (UniProt P20871); test: gp120 ELISA
[5] = biological target: gp120 JR-FL (HIV-1 JR-FL); test: gp120 ELISA

Compound | Fluorescence signal intensity 127 (PGT 127) | Fluorescence signal intensity 128 (PGT 128) | Fluorescence signal intensity 2G12 (2G12) | Fluorescence signal intensity ConA (plant lectin ConA) | Fold change in neutralization (IC50 variant/IC50 WT antibody) [1] | Fold change in neutralization (IC50 variant/IC50 WT antibody) [2] | Fold change in neutralization (IC50 variant/IC50 WT antibody) [3] | fold change in gp120 binding (EC50 variant/EC50 WT) [4] | fold change in gp120 binding (EC50 variant/EC50 WT) [5]
CCCCCCCCCCCCCCCCOCC(COP(=O)(O)OCCNCC(NC(C)=O)C(O)C(OC1OC(CO)C(OC2OC(COC3OC(COC4OC(CO)C(O)C(O)C4O)C(O)C(OC4OC(CO)C(O)C(O)C4O)C3O)C(O)C(OC3OC(CO)C(O)C(O)C3O)C2O)C(O)C1NC(C)=O)C(O)CO)OCCCCCCCCCCCCCCCC (centres unmarked) [Man5GN2-DH] | — (Signal less than 1) | — (Signal less than 1) | — (Signal less than 1) | 16,390 |  |  |  |  | 
CCCCCCCCCCCCCCCCOCC(COP(=O)(O)OCCNCC(O)C(OC1OC(CO)C(O)C(O)C1O)C(O)C(O)COC1OC(COC2OC(CO)C(O)C(O)C2O)C(O)C(OC2OC(CO)C(O)C(O)C2O)C1O)OCCCCCCCCCCCCCCCC (stereo not drawn) [Man5(α3,α6)-DH] | — (Signal less than 1) | — (Signal less than 1) | 34 | 15,291 |  |  |  |  | 
PGT 128 IgG variant LC D95aA (antibody) |  |  |  |  | > 3000 fold | > 4000 fold | 68.5 fold |  | 
PGT 128 IgG variant HC D100dA (antibody) |  |  |  |  | 0.3 fold |  | 0.5 fold | 0.1 fold | 0.1 fold
PGT 128 IgG variant HC T100cA (antibody) |  |  |  |  | 1.2 fold |  | 1.5 fold | 1.2 fold | 0.9 fold
CCCCCCCCCCCCCCCCOCC(COP(=O)(O)OCCNCC(O)C(O)C(O)C(O)COC1OC(CO)C(O)C(O)C1O)OCCCCCCCCCCCCCCCC (stereo not drawn) [Man2(α6)-DH, Manα-6Man-DH] | — (Signal less than 1) | — (Signal less than 1) | 205 | 608 |  |  |  |  | 
CCCCCCCCCCCCCCCCOCC(COP(=O)(O)OCCNCC(NC(C)=O)C(O)C(OC1OC(CO)C(OC2OC(COC3OC(COC4OC(CO)C(O)C(O)C4OC4OC(CO)C(O)C(O)C4O)C(O)C(OC4OC(CO)C(O)C(O)C4OC4OC(CO)C(O)C(O)C4O)C3O)C(O)C(OC3OC(CO)C(O)C(O)C3OC3OC(CO)C(O)C(O)C3OC3OC(CO)C(O)C(O)C3O)C2O)C(O)C1NC(C)=O)C(O)CO)OCCCCCCCCCCCCCCCC (centres unmarked) [Man9GN2-DH] | 24,209 | 26,071 | 11,717 | 21,359 |  |  |  |  | 
CCCCCCCCCCCCCCCCOCC(COP(=O)(O)OCCNCC(NC(C)=O)C(O)C(OC1OC(CO)C(OC2OC(COC3OC(CO)C(O)C(O)C3O)C(O)C(OC3OC(CO)C(O)C(O)C3O)C2O)C(O)C1NC(C)=O)C(O)COC1OC(C)C(O)C(O)C1O)OCCCCCCCCCCCCCCCC (centres unmarked) [Man3FGN2-DH] | — (Signal less than 1) | — (Signal less than 1) | 52 | 20,011 |  |  |  |  | 
PGT 128 IgG variant HC C32A (antibody) |  |  |  |  | > 3000 fold | > 4000 fold | > 2000 fold |  | 
PGT 128 IgG variant HC C52bA (antibody) |  |  |  |  | > 3000 fold | > 4000 fold | > 2000 fold |  | 
PGT 128 IgG variant HC A30Q (antibody) |  |  |  |  | 11.4 fold |  | 2.4 fold | 1.9 fold | 1.5 fold
CCCCCCCCCCCCCCCCOCC(COP(=O)(O)OCCNCC(OC1OC(CO)C(O)C(O)C1O)C(O)C(O)C(O)CO)OCCCCCCCCCCCCCCCC (stereo not drawn) [Man2(α2)-DH, Manα-2Man-DH] | — (Signal less than 1) | — (Signal less than 1) | 73 | — (Signal less than 1) |  |  |  |  | 
CCCCCCCCCCCCCCCCOCC(COP(=O)(O)OCCNCC(NC(C)=O)C(O)C(OC1OC(CO)C(OC2OC(COC3OC(CO)C(O)C(OC4OC(CO)C(O)C(O)C4O)C3O)C(O)C(OC3OC(CO)C(O)C(O)C3O)C2O)C(O)C1NC(C)=O)C(O)CO)OCCCCCCCCCCCCCCCC (centres unmarked) [Man4aGN2-DH] | — (Signal less than 1) | 26 | — (Signal less than 1) | 2,885 |  |  |  |  | 
CCCCCCCCCCCCCCCCOCC(COP(=O)(O)OCCNCC(NC(C)=O)C(O)C(OC1OC(CO)C(OC2OC(COC3OC(COC4OC(CO)C(O)C(O)C4O)C(O)C(OC4OC(CO)C(O)C(O)C4O)C3O)C(O)C(OC3OC(CO)C(O)C(O)C3OC3OC(CO)C(O)C(O)C3O)C2O)C(O)C1NC(C)=O)C(O)CO)OCCCCCCCCCCCCCCCC (centres unmarked) [Man6GN2-DH] | — (Signal less than 1) | — (Signal less than 1) | 49 | 19,006 |  |  |  |  | 
CCCCCCCCCCCCCCCCOCC(COP(=O)(O)OCCNCC(NC(C)=O)C(O)C(OC1OC(CO)C(OC2OC(COC3OC(CO)C(O)C(O)C3O)C(O)C(OC3OC(CO)C(O)C(O)C3O)C2O)C(O)C1NC(C)=O)C(O)CO)OCCCCCCCCCCCCCCCC (centres unmarked) [Man3aGN2-DH] | — (Signal less than 1) | — (Signal less than 1) | 24 | 14,192 |  |  |  |  | 
CCCCCCCCCCCCCCCCOCC(COP(=O)(O)OCCNCC(O)C(OC1OC(CO)C(O)C(O)C1O)C(O)C(O)CO)OCCCCCCCCCCCCCCCC (stereo not drawn) [Man2(α3)-DH, Manα-3Man-DH] | — (Signal less than 1) | 82 | 136 | — (Signal less than 1) |  |  |  |  | 
PGT 128 IgG variant LC W95A (antibody) |  |  |  |  | > 3000 fold | > 4000 fold | > 2000 fold |  | 
PGT 128 IgG variant LC N94A (antibody) |  |  |  |  | 1.3 fold |  | 3.5 fold | 0.7 fold | 1.1 fold
PGT 128 IgG variant HC C32A C52bA (antibody) |  |  |  |  | > 3000 fold | > 4000 fold | > 2000 fold |  | 
CCCCCCCCCCCCCCCCOCC(COP(=O)(O)OCCNCC(O)C(OC1OC(CO)C(O)C(O)C1O)C(O)C(O)COC1OC(CO)C(O)C(O)C1O)OCCCCCCCCCCCCCCCC (stereo not drawn) [Man3(α3,α6)-DH] | — (Signal less than 1) | — (Signal less than 1) | — (Signal less than 1) | 759 |  |  |  |  | 
PGT 128 IgG variant HC T73A (antibody) |  |  |  |  | 77.6 fold |  | 1.6 fold | 1.6 fold | 2.2 fold
PGT 128 IgG variant HC K75A (antibody) |  |  |  |  | 2.9 fold |  | 2.9 fold | 2.1 fold | 1.6 fold
PGT 128 IgG variant HC S28A (antibody) |  |  |  |  | 0.9 fold |  | 1.2 fold | 0.8 fold | 0.6 fold
PGT 128 IgG variant HC F79A (antibody) |  |  |  |  |  |  | 0.9 fold | 0.5 fold | 0.6 fold
PGT 128 IgG variant HC K64A (antibody) |  |  |  |  | 1.3 fold |  | 1.2 fold | 0.8 fold | 0.4 fold
PGT 128 IgG variant HC P74A (antibody) |  |  |  |  | 1.2 fold |  | 0.8 fold | 0.9 fold | 0.8 fold
PGT 128 IgG variant HC A70D (antibody) |  |  |  |  |  |  | 1.9 fold | 0.5 fold | 1 fold
